We go through four substances from patent publication US20250353921A1.

Experiment [1] has as its target Human OX40 (Acro Biosystems, catalog NO: OXO-H5224) protein (human) (UniProt P43489). Kind of experiment: SPR Biacore 8K+, single cycle kinetics, antibody captured by anti-human Fc, OX40 analyte, pH 7.4, 25 °C. In general terms: In SPR one partner is held on a chip, and binding of the other changes the refractive index at the surface.
Experiment [2] deals with human OX40 (TNFRSF4, CD134) on cells (human) (UniProt P43489). Kind of experiment: cell-based or functional assay.
Experiment [3] has the same target. In words: flow cytometry on Jurkat-NFκB (OX40) cells, detection with anti-human IgG Fc-AF647.

Where “and” joins values, the source holds several entries; their conditions need not be identical. Equal values may be shown once.

human OX40 (TNFRSF4, CD134) on cells (human), sequence (P43489 29-277 limits assumed): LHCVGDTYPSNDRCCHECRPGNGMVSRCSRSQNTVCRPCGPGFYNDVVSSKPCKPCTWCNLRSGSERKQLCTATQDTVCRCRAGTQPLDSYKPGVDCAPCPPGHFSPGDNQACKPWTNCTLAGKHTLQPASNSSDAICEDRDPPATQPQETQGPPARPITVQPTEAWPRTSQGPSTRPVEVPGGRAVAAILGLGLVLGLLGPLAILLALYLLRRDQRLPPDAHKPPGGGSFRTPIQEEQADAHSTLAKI
Human OX40 (Acro Biosystems, catalog NO: OXO-H5224) protein (human), sequence (P43489 29-216 limits assumed): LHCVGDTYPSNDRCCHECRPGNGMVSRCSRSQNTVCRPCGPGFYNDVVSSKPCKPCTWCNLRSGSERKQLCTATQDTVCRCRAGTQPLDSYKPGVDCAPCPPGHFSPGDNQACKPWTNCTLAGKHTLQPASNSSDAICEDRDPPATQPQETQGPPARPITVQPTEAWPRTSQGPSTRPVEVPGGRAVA

For AMG451 (rocatinlimab) (antibody), in experiment [1], the Kd – broadly, a measure of binding affinity in units of concentration – amounted to 3 nM. In experiment [2], this substance had an ADCC EC50, activated T cells of 0.008 nM; an ADCC EC50, in vitro differentiated Tregs of 0.005 nM; an ADCC EC50, regulatory T cells (LDH release) of 0.05 nM; an EC50, inhibition of IL-2 release of 5.87 nM. For the same substance, in experiment [2], the EC50, inhibition of IL-4 release turned out to be 1.77 nM; the EC50, inhibition of IL-5 release stood at 18.6 nM; the EC50, inhibition of IL-8 release was determined as 4.05 nM; the EC50, inhibition of IL-10 release came to 20.3 nM. In addition, in experiment [2], the EC50, inhibition of IL-13 release turned out to be 4 nM; the EC50, inhibition of IL-17a release was 11.7 nM; the EC50, inhibition of IL-21 release was 2.75 nM; the EC50, inhibition of IL-22 release turned out to be 10.4 nM. Further, in experiment [2], the EC50, inhibition of IL-31 release was found to be 1.84 nM; the EC50, inhibition of T cell proliferation was 0.15 nM and 0.019 µg/ml; the EC50, inhibition of TNF-α release amounted to 3.9 nM; the Maximum killing (%), ADCC, activated T cells worked out at 60.3%. For the same substance, in experiment [2], the Maximum killing (%), ADCC, regulatory T cells was found to be 85.8% and the responders (Resp) of donors tested, coated T cell agonism assay (responders of 9 donors) worked out at 7.
IMG-007 (antibody) yielded a luminescence, Jurkat-NFκB-OX40 agonism assay in experiment [2] of 3 fold.
IgG1 control (antibody): in experiment [2], the Maximum killing (%), ADCC, activated T cells was found to be 2.27%; the Maximum killing (%), ADCC, regulatory T cells is -0.83%; the average proliferation index (Av), coated T cell agonism assay was determined as 1.16; the responders (Resp) of donors tested, coated T cell agonism assay (responders of 15 donors) is 0.
With “MEDI0562 (humanized 9B12, tavolixizumab) (antibody)”, the EC50 (read off the curve) (as a rule, the concentration giving half of the maximal effect) in experiment [3] amounted to 0.1 µg/mL. In experiment [2], the average proliferation index (Av), coated T cell agonism assay came to 3.41; the luminescence, Jurkat-NFκB-OX40 agonism assay is greater than 2 fold; the responders (Resp) of donors tested, coated T cell agonism assay (responders of 11 donors) was 9.
